Results reported in US20060183678A1 (Novartis, published 2006).
Each block holds one binder with its values, some of them ahead of it.

How the values were obtained:
mouse NiG = biological target: T1, mouse NiG (mouse, UniProt Q99P72 188-974, limits assumed); assay: SPR (BIAcore 2000), NiG amine-coupled on CM5 chip, antibody injected
T1 construct: domain: NiG-exon3; also called mNiG-exon3; mouse NiG-exon3
T1 sequence (looked up): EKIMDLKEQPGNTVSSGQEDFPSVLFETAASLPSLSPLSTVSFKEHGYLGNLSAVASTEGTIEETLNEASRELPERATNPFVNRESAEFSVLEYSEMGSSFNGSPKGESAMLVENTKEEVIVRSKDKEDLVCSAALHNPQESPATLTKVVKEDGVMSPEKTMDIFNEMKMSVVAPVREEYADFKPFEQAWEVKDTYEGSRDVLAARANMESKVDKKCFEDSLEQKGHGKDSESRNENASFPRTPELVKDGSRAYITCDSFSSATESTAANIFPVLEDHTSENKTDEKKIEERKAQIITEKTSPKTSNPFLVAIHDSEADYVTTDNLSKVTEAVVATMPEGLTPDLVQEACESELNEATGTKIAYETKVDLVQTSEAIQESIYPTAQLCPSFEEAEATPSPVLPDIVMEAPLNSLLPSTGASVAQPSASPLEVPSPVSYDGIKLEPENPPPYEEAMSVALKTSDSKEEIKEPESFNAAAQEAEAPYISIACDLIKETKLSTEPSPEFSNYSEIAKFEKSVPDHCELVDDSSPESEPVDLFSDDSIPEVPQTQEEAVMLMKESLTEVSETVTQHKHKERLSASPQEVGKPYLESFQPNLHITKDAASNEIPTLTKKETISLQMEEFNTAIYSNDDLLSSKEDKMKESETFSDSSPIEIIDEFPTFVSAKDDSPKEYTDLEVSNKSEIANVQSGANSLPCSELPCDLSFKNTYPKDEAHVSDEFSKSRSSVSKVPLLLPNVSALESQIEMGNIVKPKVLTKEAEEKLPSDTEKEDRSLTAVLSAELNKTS
Description: (§1) The affinity of the mouse 11C7 mAb and of the 11C7 Fab are measured by surface plasmon resonance (SPR) using a BIAcore 2000 optical biosensor (Biacore, Uppsala, Sweden) according to the manufacture's instructions (see FIG. 2). Recombinant human, mouse, and rat NIG are covalently attached to three separate flow cells of a CM5 sensor chip using amine-coupling chemistry. Briefly; the carboxymethlyladed dextran matrix is activated by injecting 35 ul of a solution containing 0.025M NHS and 0.1M EDC. […] The deactivation of the remaining NHS-ester group is performed by injection of 35 ul of 1M ethanolamine hydrochloride (pH 8.5). The surface of the sensor chip is regenerated by injecting 5 ul 0.1M HCl. […] After each injection the sensor chip surface is regenerated with the injection of 10 ul 0.1M HCl without loss of binding activity on the surface. The kinetic constants, ka and kd and the affinity constants KA and KD are evaluated using the BIAevaluations 3.0 software supplied by the manufacturer.
(§2) Affinity measurement in BIAcore: The kinietc and the affinity binding constants of the mouse 11C7 mAb and the 11C7 derived monovalent Fab fragment to recombinat NogoA are measured in real time using surface plasmon resonance (SPR) technology (Biacore). For this analysis recombinant human, mouse and rat NIGs are coupled on three independent sensor chip surfaces and different concentrations of the antibodies are injected. Kinetic parameters of the binding interactions are derived from the sensorgrams by non-linear curve fitting. […] The lower affinity of the Fab fragment results from a decrease of both kinetic constants, association and dissociation (ka, kd).

rat NiG = biological target: T2, rat NiG (rat, UniProt Q9JK11 174-979); assay: as above
T2 construct: also called recombinant rat NIG
T2 sequence: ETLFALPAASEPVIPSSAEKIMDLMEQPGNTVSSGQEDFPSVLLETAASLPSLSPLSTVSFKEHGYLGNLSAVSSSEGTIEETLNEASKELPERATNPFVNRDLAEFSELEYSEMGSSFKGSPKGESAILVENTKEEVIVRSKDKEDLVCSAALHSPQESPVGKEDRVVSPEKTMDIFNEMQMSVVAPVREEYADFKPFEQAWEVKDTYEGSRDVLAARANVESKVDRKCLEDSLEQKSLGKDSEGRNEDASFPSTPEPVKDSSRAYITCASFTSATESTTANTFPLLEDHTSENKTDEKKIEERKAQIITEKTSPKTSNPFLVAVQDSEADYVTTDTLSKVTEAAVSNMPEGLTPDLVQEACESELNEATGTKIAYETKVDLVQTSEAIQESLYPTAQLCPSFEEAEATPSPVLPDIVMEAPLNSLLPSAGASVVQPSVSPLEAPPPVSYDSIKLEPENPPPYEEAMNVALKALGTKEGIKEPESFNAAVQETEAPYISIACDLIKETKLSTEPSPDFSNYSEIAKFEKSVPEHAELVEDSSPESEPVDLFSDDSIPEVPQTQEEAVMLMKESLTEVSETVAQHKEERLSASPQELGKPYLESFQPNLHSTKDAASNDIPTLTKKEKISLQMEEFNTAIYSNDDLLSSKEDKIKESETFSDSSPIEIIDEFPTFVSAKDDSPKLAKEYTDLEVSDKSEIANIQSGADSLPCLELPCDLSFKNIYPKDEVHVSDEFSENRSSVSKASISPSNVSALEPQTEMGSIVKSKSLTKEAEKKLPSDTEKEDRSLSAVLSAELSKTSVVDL
Description: as §1, §2

human NiG [1] = biological target: T3, human NiG (human, UniProt Q9NQC3 186-1004); assay: as above
T3 construct: Expressed in E. coli from pET28a-hNiG; also called hNiG; recombinant human NIG; not shown: N-terminal His- and T7-tag from pET28a
T3 sequence: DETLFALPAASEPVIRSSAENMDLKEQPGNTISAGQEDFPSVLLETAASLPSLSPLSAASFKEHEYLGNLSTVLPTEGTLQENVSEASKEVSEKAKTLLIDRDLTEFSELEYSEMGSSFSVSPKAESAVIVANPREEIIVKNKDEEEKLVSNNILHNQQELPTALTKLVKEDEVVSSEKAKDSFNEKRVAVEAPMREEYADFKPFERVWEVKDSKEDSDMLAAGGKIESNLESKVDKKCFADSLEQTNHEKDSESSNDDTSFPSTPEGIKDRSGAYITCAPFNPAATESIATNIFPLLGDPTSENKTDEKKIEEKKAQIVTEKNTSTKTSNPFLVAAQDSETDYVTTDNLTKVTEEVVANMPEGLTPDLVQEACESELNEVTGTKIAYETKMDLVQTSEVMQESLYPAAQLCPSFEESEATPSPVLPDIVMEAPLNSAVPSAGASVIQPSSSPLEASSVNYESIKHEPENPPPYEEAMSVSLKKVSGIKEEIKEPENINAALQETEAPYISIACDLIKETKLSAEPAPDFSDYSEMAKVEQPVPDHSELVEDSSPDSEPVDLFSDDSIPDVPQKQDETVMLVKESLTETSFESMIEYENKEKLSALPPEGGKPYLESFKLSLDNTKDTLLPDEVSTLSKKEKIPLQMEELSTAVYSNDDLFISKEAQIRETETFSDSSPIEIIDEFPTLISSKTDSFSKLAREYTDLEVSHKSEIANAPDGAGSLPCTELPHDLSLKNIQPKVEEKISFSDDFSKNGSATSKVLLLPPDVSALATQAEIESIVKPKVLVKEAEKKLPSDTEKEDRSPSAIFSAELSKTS
Description: as §1, §2

rat NogoA-623-640 = biological target: T4, rat NogoA-623-640 (rat); assay: peptide competition of cell surface staining of living rat oligodendrocytes
T4 construct: Free peptide used for preincubation with 11C7; also called immunogenic peptide
T4 peptide: SYDSIKLEPENPPPYEEA
Description: Immunocytochemistry: Optic nerve oligodendrocytes are prepared as described (Schwab, Caroni, 1988, Neuron). Three to five day-old cultures grown on poly-L-lysine coated coverslips are washed twice with PBS, fixed in 4% (w/v) paraformaldehyde (PFA), 5% (w/v) sucrose in PBS for 15 min at room temperature (RT) and non-specific binding is blocked with 10% (v/v) FCS. Cells were then incubated with mouse 11C7 (1:100). Secondary antibodies are goat-anti-mouse TRITC (Jackson ImmunoResearch Laboratories). For cell surface staining, two day-old rat optic nerve cultures are incubated with monoclonal antibody in medium for 25 min at RT. Secondary alkaline phosphatase conjugated antibodies (Milan Analytica, Lausanne) are used at 1:7,500 in 0.1 M maleic acid with 1% (w/v) blocking reagent (1 hr). The cultures are washed twice with maleic acid buffer, once with alkaline phosphatase buffer (0.1 M Tris-HCl pH 9.5, 0.1 M NaCl, 5 mM MgCl₂) and the staining is developed for 3 hrs at room temperature with 0.175 mg/ml BCIP (Sigma) and 0.338 mg/ml NBT (Sigma) in alkaline phosphatase buffer.
Cell surface staining is present on all major and small processes and on the cell body. Thus, the Nogo-A specific part of the molecule recognised by mouse 11C7 mAb is exposed to the extracellular space on the plasma membrane of oligodendrocytes.

Nogo-66 = biological target: T5, Nogo-66 (rat, UniProt Q9JK11 1019-1083); assay: ELISA, fragment coated on plate
T5 construct: also called Nogo-66 fragment
T5 sequence: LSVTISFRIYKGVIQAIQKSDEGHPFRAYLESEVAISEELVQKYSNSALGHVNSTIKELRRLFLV
Description: (§3) Greiner 96 well PS plates (#655161) are coated with 0.4-2 ug/ml Nogo protein fragments in PBS (100ul/well) covered and incubated 4 hours at room temperature. Plates are flicked and refilled with 200 ul/well blocking buffer (PBS+2% BSA), covered and incubated. 1 h at RT or overnight at 4° C., then washed 4 times with water and PBS. Different concentrations of mouse 11C7 mAb or 11C7 Fab are diluted in PBS+2% BSA (100 u/well), and incubated 2 h at RT or overnight at 4° C. Wash step is repeated and Goat anti-mouse IgG conjugated with horse radish peroxidase (HRP) at a dilution of 1:5000 (ICN #55550) in PBS/0.1% BSA/0.1% Nonidet 40 (100 uVwell) is added and incubated. 2h at RT or overnight at 4° C. and wash step is repeated. HRP reaction is started by adding 100 uvwell BM blue POD (Roche #1484281) and incubafed in the dark at RT for 15 minutes. H2SO4 50 ul/well 1 M is added to stop HRP substrate reaction and the optical density is determinated using a microplate reader (Packard Spectra Count) set to 450 nm.

rat NiG-D6 = biological target: T6, rat NiG-D6 (rat, UniProt Q9JK11 763-975); assay: ELISA, fragment coated on plate
T6 construct: pET28 construct from bacteria
T6 sequence: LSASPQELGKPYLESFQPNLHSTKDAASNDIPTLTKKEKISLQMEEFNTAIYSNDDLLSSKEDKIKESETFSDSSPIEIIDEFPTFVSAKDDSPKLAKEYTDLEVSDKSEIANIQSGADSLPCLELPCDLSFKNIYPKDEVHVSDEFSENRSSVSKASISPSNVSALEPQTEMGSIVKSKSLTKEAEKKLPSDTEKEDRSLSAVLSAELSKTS
Description: as §3

human NiG [2] = biological target: T3, human NiG; assay: SPR (BIAcore 2000), NiG amine-coupled on CM5 chip, Fab injected
Description: as §1, §2

Ka (mouse NiG): 5.2e+09 M⁻¹
Kd (mouse NiG): 192 pM
koff (mouse NiG): 0.000106 s⁻¹
kon (mouse NiG): 552000 M⁻¹ s⁻¹
Ka (rat NiG): 2.25e+09 M⁻¹
Kd (rat NiG): 444 pM
koff (rat NiG): 0.000389 s⁻¹
kon (rat NiG): 876000 M⁻¹ s⁻¹
Ka (human NiG [1]): 9.73e+09 M⁻¹
Kd (human NiG [1]): 103 pM
koff (human NiG [1]): 4.6e-05 s⁻¹
kon (human NiG [1]): 448000 M⁻¹ s⁻¹
binding result (rat NogoA-623-640): binds
binding result (Nogo-66): no binding (tested: 0.02 to 2.5 nM)
binding result (rat NiG-D6): no binding (tested: 0.02 to 2.5 nM)
B1: mouse 11C7 mAb (antibody, V domains shown)
VH: EVKLLESGGGLVQPGGSLKLSCVVSGFDFRRNWMSWVRQAPGKGLEWIGEINPDSSKINYTPSLKDKFIISRDNAKNTLYLQVSTVRSEDTALYYCVRPVWMYAMDYWGQGTSVTVSS
VL: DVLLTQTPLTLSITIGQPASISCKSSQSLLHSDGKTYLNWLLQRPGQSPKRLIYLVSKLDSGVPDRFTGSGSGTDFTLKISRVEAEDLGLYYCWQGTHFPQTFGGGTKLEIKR
notes: also called mouse 11C7-IgG1; mAb 11C7

Ka (human NiG [2]): 1.4e+08 M⁻¹
Kd (human NiG [2]): 7140 pM
koff (human NiG [2]): 0.000528 s⁻¹
kon (human NiG [2]): 72900 M⁻¹ s⁻¹
binding result (Nogo-66): no binding (tested: 0.025 to 25 nM)
binding result (rat NiG-D6): no binding (tested: 0.025 to 25 nM)
B2: 11C7 Fab (Fab, V domains shown)
VH: B1 VH
VL: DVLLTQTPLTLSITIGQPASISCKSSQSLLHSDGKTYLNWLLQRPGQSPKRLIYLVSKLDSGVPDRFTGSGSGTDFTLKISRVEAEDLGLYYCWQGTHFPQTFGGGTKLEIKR
notes: also called 11C7 derived monovalent Fab fragment; Fab monovalent fragment
